One block for each substance: values may come before it.
What was measured:
[1] = biological target: KEAP1 (wild-type full-length), His-tagged (human) (UniProt Q14145); assay: AlphaScreen; average of three conditions; against wild-type NRF2 isoform 2
[2] = biological target: KEAP1 (wild-type full-length), His-tagged (human) (UniProt Q14145); assay: AlphaScreen; 19.2 nM FLAG-NRF2, 150 nM His-KEAP1; Repeat 2 (same value as in Table 23)
[3] = biological target: KEAP1 (wild-type full-length), His-tagged (human) (UniProt Q14145); assay: AlphaScreen; 38.4 nM FLAG-NRF2, 150 nM His-KEAP1 (same value as in Table 23)
[4] = biological target: KEAP1 (wild-type full-length), His-tagged (human) (UniProt Q14145); assay: AlphaScreen; 38.4 nM FLAG-NRF2, 150 nM His-KEAP1; against wild-type NRF2 isoform 2 = 100%
[5] = biological target: KEAP1 (wild-type full-length), His-tagged (human) (UniProt Q14145); assay: AlphaScreen; 38.4 nM FLAG-NRF2, 150 nM His-KEAP1; Repeat 1 (same value as in Table 23)
[6] = biological target: KEAP1 (wild-type full-length), His-tagged (human) (UniProt Q14145); assay: AlphaScreen; 19.2 nM FLAG-NRF2, 150 nM His-KEAP1; against wild-type NRF2 isoform 2 = 100%
[7] = biological target: KEAP1 (wild-type full-length), His-tagged (human) (UniProt Q14145); assay: AlphaScreen; mean over 9.6, 19.2 and 38.4 nM NRF2; 150 nM His-KEAP1; against wild-type NRF2 isoform 2 = 100%
[8] = biological target: KEAP1 (wild-type full-length), His-tagged (human) (UniProt Q14145); assay: AlphaScreen; 307.2 nM FLAG-NRF2, 150 nM His-KEAP1; Rep 1
[9] = biological target: KEAP1 (wild-type full-length), His-tagged (human) (UniProt Q14145); assay: AlphaScreen, all variants on one plate; upper condition (38.4 nM NRF2), KEAP1 150 nM; relative to NRF2 (WT) isoform 2
[10] = biological target: KEAP1 (wild-type full-length), His-tagged (human) (UniProt Q14145); assay: AlphaScreen; 9.6 nM FLAG-NRF2, 150 nM His-KEAP1; against wild-type NRF2 isoform 2 = 100%
[11] = biological target: KEAP1 (wild-type full-length), His-tagged (human) (UniProt Q14145); assay: AlphaScreen, all variants on one plate; lower condition (9.6 nM NRF2), KEAP1 150 nM; relative to NRF2 (WT) isoform 2
[12] = biological target: KEAP1 (wild-type full-length), His-tagged (human) (UniProt Q14145); assay: AlphaScreen; 9.6 nM FLAG-NRF2, 150 nM His-KEAP1; Repeat 1 (same value as in Table 23)
[13] = biological target: KEAP1 (wild-type full-length), His-tagged (human) (UniProt Q14145); assay: AlphaScreen; 19.2 nM FLAG-NRF2, 150 nM His-KEAP1 (same value as in Table 23)
[14] = biological target: KEAP1 (wild-type full-length), His-tagged (human) (UniProt Q14145); assay: AlphaScreen; 9.6 nM FLAG-NRF2, 150 nM His-KEAP1 (same value as in Table 23)
[15] = biological target: KEAP1 (wild-type full-length), His-tagged (human) (UniProt Q14145); assay: AlphaScreen; over 9.6, 19.2 and 38.4 nM NRF2; 150 nM His-KEAP1
[16] = biological target: KEAP1 (wild-type full-length), His-tagged (human) (UniProt Q14145); assay: AlphaScreen, all variants on one plate; average of three conditions ± standard deviation, KEAP1 150 nM; relative to NRF2 (WT) isoform 2
[17] = biological target: KEAP1 (wild-type full-length), His-tagged (human) (UniProt Q14145); assay: AlphaScreen; mean over 9.6, 19.2 and 38.4 nM NRF2; 150 nM His-KEAP1; against wild-type NRF2 isoform 2
[18] = biological target: KEAP1 (wild-type full-length), His-tagged (human) (UniProt Q14145); assay: AlphaScreen; 38.4 nM FLAG-NRF2, 150 nM His-KEAP1; wild type set to 100%
[19] = biological target: KEAP1 (wild-type full-length), His-tagged (human) (UniProt Q14145); assay: AlphaScreen; 9.6 nM FLAG-NRF2, 150 nM His-KEAP1 (same value as in Table 22)
[20] = biological target: KEAP1 (wild-type full-length), His-tagged (human) (UniProt Q14145); assay: AlphaScreen; 19.2 nM FLAG-NRF2, 150 nM His-KEAP1; wild type set to 100%
[21] = biological target: KEAP1 (wild-type full-length), His-tagged (human) (UniProt Q14145); assay: AlphaScreen, all variants on one plate; average of three conditions, KEAP1 150 nM; the reference itself
[22] = biological target: KEAP1 (wild-type full-length), His-tagged (human) (UniProt Q14145); assay: AlphaScreen; 9.6 nM FLAG-NRF2, 150 nM His-KEAP1; wild type set to 100%
[23] = biological target: KEAP1 (wild-type full-length), His-tagged (human) (UniProt Q14145); assay: AlphaScreen; 38.4 nM FLAG-NRF2, 150 nM His-KEAP1; Repeat 1 (same value as in Table 22)
[24] = biological target: KEAP1 (wild-type full-length), His-tagged (human) (UniProt Q14145); assay: AlphaScreen, all variants on one plate; optimal condition (19.2 nM NRF2), KEAP1 150 nM; the reference itself
[25] = biological target: KEAP1 (wild-type full-length), His-tagged (human) (UniProt Q14145); assay: AlphaScreen, all variants on one plate; lower condition (9.6 nM NRF2), KEAP1 150 nM; the reference itself
[26] = biological target: KEAP1 (wild-type full-length), His-tagged (human) (UniProt Q14145); assay: AlphaScreen, all variants on one plate; upper condition (38.4 nM NRF2), KEAP1 150 nM; the reference itself
[27] = biological target: KEAP1 (wild-type full-length), His-tagged (human) (UniProt Q14145); assay: AlphaScreen; mean over 9.6, 19.2 and 38.4 nM NRF2; 150 nM His-KEAP1

Sequence of KEAP1 (wild-type full-length), His-tagged (human) (Q14145 2-624 limits assumed, form in doubt): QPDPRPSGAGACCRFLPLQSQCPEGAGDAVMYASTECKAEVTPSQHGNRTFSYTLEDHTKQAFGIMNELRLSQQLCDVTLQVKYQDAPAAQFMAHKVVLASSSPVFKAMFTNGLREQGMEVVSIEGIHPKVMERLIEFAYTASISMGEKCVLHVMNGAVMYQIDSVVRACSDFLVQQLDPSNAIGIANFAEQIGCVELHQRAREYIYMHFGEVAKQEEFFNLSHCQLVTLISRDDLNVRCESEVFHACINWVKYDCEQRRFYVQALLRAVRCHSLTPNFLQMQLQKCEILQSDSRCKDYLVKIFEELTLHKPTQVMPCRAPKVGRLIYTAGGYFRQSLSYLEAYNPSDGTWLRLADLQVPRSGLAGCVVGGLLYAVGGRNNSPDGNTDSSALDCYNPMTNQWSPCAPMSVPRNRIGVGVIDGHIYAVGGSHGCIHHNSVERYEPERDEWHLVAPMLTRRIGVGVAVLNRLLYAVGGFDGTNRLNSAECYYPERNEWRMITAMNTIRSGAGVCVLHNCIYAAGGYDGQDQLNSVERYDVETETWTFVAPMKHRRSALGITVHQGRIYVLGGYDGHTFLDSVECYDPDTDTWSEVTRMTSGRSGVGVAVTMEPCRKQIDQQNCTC

Reported Value (reduction in binding) [1]: 69.1%
A-counts [2]: 1950 A-counts
S/N [3]: 1.8
Binding Percentage (%) [4]: 37.8%
A-counts [5]: 2120 A-counts
Binding Percentage (%) [6]: 19.2%
Average Binding [7]: 30.9%
A-counts [8]: 1600 A-counts
% Disruption in Binding [9]: 61.9%
Binding Percentage (%) [10]: 35.7%
% Disruption in Binding [11]: 63.4%
A-counts [12]: 1670 A-counts
S/N [13]: 1.8
S/N [14]: 1.8
Standard Deviation (of binding percentage) [15]: 10.2%
% Disruption in Binding (Reported Values) [16]: 61.7%
Avg. Reduction in Binding [17]: 69.1%
Substance: NRF2 isoform 2 (E63G/E66G full-length), FLAG-tagged

Binding Percentage (%) [18]: 100%
S/N [19]: 3.7
Binding Percentage (%) [20]: 100%
% Disruption in Binding (Reported Values) [21]: 0%
A-counts [8]: 2970 A-counts
Binding Percentage (%) [22]: 100%
A-counts [23]: 3470 A-counts
% Disruption in Binding [24]: 0%
% Disruption in Binding [25]: 0%
% Disruption in Binding [26]: 0%
Average Binding [27]: 100%
Substance: NRF2 isoform 2 (wild-type full-length), FLAG-tagged

Source: patent publication US20250352667A1
